Data on 1 protein can be found in publication PMC4323281 (Nature, 2014).

As usually defined, the stoichiometry N is the number of molecules, sites or subunits per partner or assembly.

The series deals with the molecule itself. Briefly: AUC.

B1: Archaeoglobus fulgidus alanyl-tRNA synthetase (AlaRS), wild-type, full-length (enzyme, UniProt O28029 1-906, looked up)
chain: MTLDEEYLDITFLTENGFVRKRCPKCGKHFWTADPEREICGDPPCESYSFIGNPVFKKPFELDEMREYYLNFFERRGHGRIERYPVVARWRTDIYLTIASIADFQPFVTSGVAPPPANPLTISQPCIRLDDLDSVGRTGRHLTLFEMMAHHAFNYPGKEIYWKNETVAYCTELLNELGVKKEDIVYKEEPWAGGGNAGPCLEAIVGGLEVATLVFMNLEEHPEGDIEIKGARYRKMDNYIVDTGYGLERFVWASKGTPTVYDAIFPEVVDTIIDNSNVSFNREDERVRRIVAESSKLAGIMGELRGERLNQLRKSVADTVGVSVEELEGIVVPLEKVYSLADHTRCILFMLGDGLVPSNAGAGYLARLMIRRSLRLAEELELGLDLYDLVEMHKKILGFEFDVPLSTVQEILELEKERYRTTVSKGTRLVERLVERKKKLEKDDLIELYDSHGIPVELAVGIAAEKGAEVEMPKDIYAELAKRHSKAEKVQEKKITLQNEYPATEKLYYDDPTLLEFEAEVIGVEGDFVILNRSAFYPESGGQDNDVGYLIANGGKFEVVDVLEADGVVLHVVKGAKPEVGTKVKGVIDSDVRWRHMRHHSATHVLLYSLQKVLGNHVWQAGARKEFSKARLDVTHFRRPSEEEIKEIEMLANREILANKPIKWEWMDRIEAERKFGFRLYQGGVPPGRKIRVVQVGDDVQACGGTHCRSTGEIGMLKILKVESIQDGVIRFEFAAGEAAIEAVEEMERLLREASSILRVEPAKLPKTVERFFEEWKDQRKEIERLKSVIADLWADILMERAEEFDSMKVVAEVVDADMQALQKLAERLAEKGAVGCLMAKGEGKVFVVTFSGQKYDARELLREIGRVAKGSGGGRKDVAQGAVQQLLDREEMLDVIFRFLSEHEG
For B1, the “stoichiometry N” value amounted to 2.
